Data on 1 molecule can be found in patent publication US6462016 (SHISEIDO, dated 2002).

The assay addresses maxadilan (recombinant represented by SEQ ID NO: 2, peptide fragment GSIL- bound to the N-terminal cysteine … (Lutzomyia longipalpis (sand fly), UniProt P30659 24-86)). Put plainly: ^125I-Max saturation binding and Scatchard plot, rabbit spleen crude membrane fraction, filtration.

B1: maxadilan receptor of the rabbit (maxadilan-specific receptor in crude membrane fractions from rabbit brain and rabbit spleen) (receptor)
chain: MAGVLQVSLAALLLLPAATAMHSDCIFKKEQALCLEKIQRANDLLGLNDSSPGCPGMWDNITCWKPAHVGEMVLVSCPELFRIFNPDQGEFDFAESTSLDLADMGVVSRNCTEDGWSEPFPHYFDACGFDEYESEPGDQDYYYLSVKALYTVGYSTSLVTLTTAMVILCRFRKLHCTRNFIHMNLFVSFMLRAISVFIKDWILYAEQDSNHCFVSTVECKAVMVFFHYCVVSNYFWLFIEGLYLFTLLVETFFPERRYFYWYTMIGWGTPTVCVAVWATLRLYFDDTGCWDMNDSTALWWVIKGPVVASIMVNFVLFIGIIIILVQKLQSPDTGGNESSIYLRLARSTLLLIPLFGIHYTVFAFSPENVSKRERLVFELGLGSFQGFVVAVLYCFLNGEVQAEIKRKWRSWKVNRYFAVDFKHRHPSLASSGVNGGTQLSILSKSSSQLRMSGLPADNLAT
Take B1: the Kd is 0.055 nM.

As usually defined, the Kd is the constant that tells how readily two partners part at equilibrium.
